Positions count from the first letter of the chain named. Numbers in names are those of the source.
B1: HA-SDE2UBL-PA activity-based probe (domain or fragment, human, UniProt Q6IQ49-1 1-76, looked up)
chain: MAEAAALVWIRGPGFGCKAVRCASGRCTVRDFIHRHCQDQNVPVENFFVKCNGALINTSDTVQHGAVYSLEPRLCG
modifications: C-terminal propargylamide: Gly77 replaced with a propargyl electrophilic warhead
notes: Silencing Defective 2 (SDE2), human, ubiquitin-like domain residues 1-76; Reacts covalently with the catalytic cysteine of the protease that recognises it; also called HA-SDE2UBL-ABP; SDE2UBL probe; not shown: HA, N-terminal, kept
B2: SDE2UBL without the terminal Gly77 (domain or fragment, human, UniProt Q6IQ49-1 1-76, looked up)
chain: B1 chain
notes: Silencing Defective 2 (SDE2), human, ubiquitin-like domain with the terminal Gly77 removed (residues 1-76); also called SDE2UBLΔG77
B3: wild-type USP5 (ubiquitin-specific protease 5), recombinant (enzyme, human, UniProt P45974-1 1-858, looked up)
chain: MAELSEEALLSVLPTIRVPKAGDRVHKDECAFSFDTPESEGGLYICMNTFLGFGKQYVERHFNKTGQRVYLHLRRTRRPKEEDPATGTGDPPRKKPTRLAIGVEGGFDLSEEKFELDEDVKIVILPDYLEIARDGLGGLPDIVRDRVTSAVEALLSADSASRKQEVQAWDGEVRQVSKHAFSLKQLDNPARIPPCGWKCSKCDMRENLWLNLTDGSILCGRRYFDGSGGNNHAVEHYRETGYPLAVKLGTITPDGADVYSYDEDDMVLDPSLAEHLSHFGIDMLKMQKTDKTMTELEIDMNQRIGEWELIQESGVPLKPLFGPGYTGIRNLGNSCYLNSVVQVLFSIPDFQRKYVDKLEKIFQNAPTDPTQDFSTQVAKLGHGLLSGEYSKPVPESGDGERVPEQKEVQDGIAPRMFKALIGKGHPEFSTNRQQDAQEFFLHLINMVERNCRSSENPNEVFRFLVEEKIKCLATEKVKYTQRVDYIMQLPVPMDAALNKEELLEYEEKKRQAEEEKMALPELVRAQVPFSSCLEAYGAPEQVDDFWSTALQAKSVAVKTTRFASFPDYLVIQIKKFTFGLDWVPKKLDVSIEMPEELDISQLRGTGLQPGEEELPDIAPPLVTPDEPKGSLGFYGNEDEDSFCSPHFSSPTSPMLDESVIIQLVEMGFPMDACRKAVYYTGNSGAEAAMNWVMSHMDDPDFANPLILPGSSGPGSTSAAADPPPEDCVTTIVSMGFSRDQALKALRATNNSLERAVDWIFSHIDDLDAEAAMDISEGRSAADSISESVPVGPKVRDGPGKYQLFAFISHMGTSTMCGHYVCHIKKEGRWVIYNDQKVCASEKPPKDLGYIYFYQRVAS
notes: ubiquitin-specific protease 5 (USP5), human; No removal of the His tag is described; the TR-FRET assay detects the His-tagged protein with an anti-His6 antibody; also called USP5^WT; His-USP5; source: E. coli BL21 (DE3), purified (Ni-NTA, SEC Superdex 200)
B4: catalytically inactive USP5 C335A, recombinant (enzyme, human, UniProt P45974-1 1-858, looked up)
chain: B3 chain with C335A
notes: ubiquitin-specific protease 5 (USP5), human, catalytic Cys335 changed to Ala; Named His-USP5^C335A in the TR-FRET assay; also called His-USP5^C335A; source: E. coli BL21 (DE3), purified (Ni-NTA, SEC Superdex 200)
B5: SDE2 ubiquitin-like domain, SDE2UBL(1-77) (domain or fragment, human, UniProt Q6IQ49-1 1-77, looked up)
chain: MAEAAALVWIRGPGFGCKAVRCASGRCTVRDFIHRHCQDQNVPVENFFVKCNGALINTSDTVQHGAVYSLEPRLCGG
notes: Silencing Defective 2 (SDE2), human, N-terminal ubiquitin-like domain, residues 1-77, ending in the free Gly76-Gly77 motif; also called SDE2 1-77; source: E. coli BL21 (DE3), purified (Ni-NTA, SUMO protease, reverse Ni-NTA, SEC Superdex 75); not shown: His, N-terminal, cleaved; SUMO, N-terminal, cleaved

Experiments:
Settings in all cases: both partners purified
[1] = target: B3; test: activity-based probe labelling (covalent adduct on SDS-PAGE); purified DUB 1 µM with probe 2 µM in 50 mM Tris pH 7.5, 1 mM DTT, 37 °C; quenched with LDS/DTT; shows only the covalent probe-enzyme adduct as a band shift
[2] = target: B3; test: ITC; SDE2 construct or Ub titrated into USP5 construct; ITC200, 298 K; 50 mM HEPES, 100 mM NaCl, 1 mM TCEP, pH 7.5; duplicate experiments
[3] = target: T1, ubiquitin (monoubiquitin) (human, UniProt P0CG48 1-76); test: HDX-MS; USP5^WT 6 µM with or without 200 µM ubiquitin or SDE2UBL, 30 min; 20 mM HEPES pH 7.5, 150 mM NaCl, 1 mM DTT; exchange 0.3 to 3000 s; pepsin digestion
T1 construct: ubiquitin, human

[4] = target: T2, Ub-PA activity-based probe (His-Ub-PA) (human, UniProt P0CG48 1-75, C-terminal propargylamide (PA) warhead); test: activity-based probe labelling (covalent adduct on SDS-PAGE); purified DUB 1 µM with probe 2 µM in 50 mM Tris pH 7.5, 1 mM DTT, 37 °C; quenched with LDS/DTT; shows only the covalent probe-enzyme adduct as a band shift
T2 construct: ubiquitin residues 1-75; The plasmid name holds a 3C site between His and Ub; also called Ub-ABP; source: plasmid pTXB1_His-3C-Ub (1-75); obtained by the same method as HA-SDE2UBL-PA

[5] = target: T1, ubiquitin (monoubiquitin); test: ITC; SDE2 construct or Ub titrated into USP5 construct; ITC200, 298 K; 50 mM HEPES, 100 mM NaCl, 1 mM TCEP, pH 7.5; duplicate experiments
USP5 C335R, recombinant = target: T3, USP5 C335R, recombinant (human, UniProt P45974-1 1-858, C335R); test: as above
T3 construct: ubiquitin-specific protease 5 (USP5), human, Cys335 changed to Arg; source: E. coli BL21 (DE3), purified (Ni-NTA, SEC Superdex 200)
T3 sequence (looked up): B3 chain with C335R

[6] = target: B4; test: as above

Question: Does B1 bind [1]?
Answer: Result: binds

Question: Does B2 bind [2]?
Answer: Result: binds

Question: Does B3 bind [3]?
Answer: Result: binds

Question: Does B3 bind [4]?
Answer: Result: binds

Question: Which Kd [5] does the source give for B4 here?
Answer: Its Kd is 11.7 ± 9.1 nM.

Question: With B5 as the binder, how does the Kd (USP5 C335R, recombinant) read?
Answer: The Kd was 2150 nM.

Question: What about the “stoichiometry N” value (USP5 C335R, recombinant) of the same binder?
Answer: The value was 1.

Question: What about the Kd [6] of the same binder?
Answer: Its Kd is 1670 nM.

Question: And the “stoichiometry N” value [6]?
Answer: The value was 2.

Question: What about the Kd [2] of the same binder?
Answer: Its Kd is 26600 nM.

Reference: publication PMC13572447, “USP5 acts as a proteolytic switch to control SDE2 function via UBL-directed cleavage” (Nature Communications, 2026)
